ELISA ratio data for five molecules are collected here from patent publication US20200362046A1 (published 2020).

Where a chain is given by its changes, count along the chain named.

In test [1] the target is KIR-Fc (purified recombinant "target"-Fc protein). The test is described as follows: phage ELISA on purified target-Fc; signal over non-specific control (e.g., IgG1-Fc); average where several clones share the sequence. In general terms: In an ELISA, binding on a coated surface is turned into a signal by an enzyme label.
The target of test [2] is T1, PD-L1-Fc (purified recombinant "target"-Fc protein) (UniProt Q9NZQ7 19-238).
T1 construct: also called B7-H1; not shown: Fc part of the fusion
Put plainly: phage ELISA on purified target-Fc; signal over non-specific control (e.g., IgG1-Fc). As to the method: Selections were also performed using F1, F2, F3. C1 & C2 trinucleotide phosphoramidite libraries. In most cases, libraries were pooled prior to use in selection. By combining equal volumes of the individual libraries. Pool F (libraries F1, F2 and F3) and Pool C (libraries C1 and C2) were generated. These libraries were used in selections for DBDpp binders to 4-1BB/CD137 as well as a larger panel of purified recombinant “target”-Fc proteins, including CD47, CTLA4. DR5, KIR. LAG3, OX40, PD1, PD-L1 and TIM3. (Many of these targets are considered immuno-regulatory factors (Pardoll et al., Nat. Rev. Cancer 12:252-264 (2012)). After incubation of the target with the pools of DBDpp phage libraries, bound phage-target complexes were captured and separated from unbound phage with protein A beads (target proteins were Fc fusions). Alter three rounds of selection, rescued phage clones were screened by ELISA for binding to the selected target.
For each target, approximately 90 DBDpp phage clones were screened by ELISA for binding to the target protein and as well as a non-specific control (e.g., IgG1-Fc). […] In some instances, for the ELISA screening plate in which the majority of DBDpp clones were positive, the entire plate was sequenced.

Test [3] deals with KIR-Fc (purified recombinant "target"-Fc protein). The description is as above.

T1 sequence (Q9NZQ7 19-238 limits assumed): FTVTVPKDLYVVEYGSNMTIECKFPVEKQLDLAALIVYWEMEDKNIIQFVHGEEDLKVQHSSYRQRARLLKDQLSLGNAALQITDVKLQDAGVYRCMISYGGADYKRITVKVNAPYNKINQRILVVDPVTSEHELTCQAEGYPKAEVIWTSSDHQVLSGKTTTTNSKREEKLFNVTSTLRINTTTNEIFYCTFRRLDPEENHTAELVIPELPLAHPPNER

B1: SEQ ID NO 35 (designed binder)
chain: MGSWSEFYNRLDAIESRLLALGGSEAELALFEIQIARFEKVLQAYKGKGNPEVEALRGEARAIFAELYAYRHN
For the molecule B1, the ELISA ratio in test [1] amounted to 8.4.

B2: SEQ ID NO 60 (designed binder)
chain: MGSWYEFTVRLEAIHERLKALGGSEAELAAFEKEIAAFESELQAYKGKGNPEVEILRDDAAFIRRFLQAYRHN
notes: also called DBDpp; library F3
B2: the ELISA ratio in test [2] was determined as 17.3 ratio.

B3: SEQ ID NO 61 (designed binder)
chain: B2 chain with T8D, V9D, E12N, E16D, K19Q, I55D
notes: also called DBDpp; library F3
Turning to B3, the ELISA ratio in test [2] stood at 12.2 ratio.

B4: SEQ ID NO 37 (designed binder)
chain: MGSWLWFKIFLAEIKYFLEALGGSEAELAAFDFEIHAFHVELFAYKGKGNPEVEVLREVAAEIRWDLQAYRHN
B4: in test [3], the ELISA ratio came to 4.17.

B5: SEQ ID NO 36 (designed binder)
chain: MGSWYEFYNRLYAIEIRLYALGGSEAELAAFEKEIAAFESELQAYKGKGNPEVERLRVRAAKIRVILQAYRHN
As to B5, the ELISA ratio in test [1] stood at 4.24.
